From patent US20220119534A1 (DRAGONFLY THERAPEUTICS, published 2022)
Substitutions are numbered along the chain they refer to. Names and notes keep the numbering of the source. Values joined by “and” are separate entries in the source; they are usually repeats but may differ in a detail not shown here. Equal entries are not always repeated. Blank lines part the entries; values can stand above or below the binder they belong to.

How the values were obtained:
Human CLEC12A-His [1] = molecular target: T1, Human CLEC12A-His (human, UniProt Q5QGZ9 65-265); test: SPR Biacore 8K 37 C; TriNKET captured on anti-hFc chip, hCLEC12A-His as analyte; 1:1 fit; pH 8.0 control, n=2
T1 construct: Recombinant soluble protein made in house (Dragonfly Tx); The hCLEC12A spot of the HuProt array is written under this molecule as well; also called hCLEC12A-His; hCLEC12A; not shown: His tag
T1 sequence: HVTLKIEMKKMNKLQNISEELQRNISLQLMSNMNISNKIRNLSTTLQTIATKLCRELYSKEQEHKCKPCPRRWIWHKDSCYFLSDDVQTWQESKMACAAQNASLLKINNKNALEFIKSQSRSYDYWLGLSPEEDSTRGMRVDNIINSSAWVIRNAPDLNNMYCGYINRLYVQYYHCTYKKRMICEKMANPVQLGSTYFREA

mFc-hNKG2D [2] = molecular target: T2, mFc-hNKG2D (human, UniProt P26718 73-216); test: SPR Biacore 8K 37 C; mFc-hNKG2D captured on anti-mFc chip, TriNKET as analyte; steady state fit; pH 5.0 control
T2 construct: extracellular domain; Made in house (Dragonfly Tx); the order of tag and ECD follows the name mFc-hNKG2D; also called mFc-tagged human NKG2D; not shown: mouse Fc tag
T2 sequence (looked up): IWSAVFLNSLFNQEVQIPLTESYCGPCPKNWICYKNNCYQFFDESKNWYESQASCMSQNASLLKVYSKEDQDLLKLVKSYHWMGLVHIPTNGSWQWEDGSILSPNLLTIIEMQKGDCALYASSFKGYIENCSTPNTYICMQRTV

Human CLEC12A-His [3] = molecular target: T3, Human CLEC12A-His (human, UniProt Q5QGZ9 65-265); test: SPR; control sample (pH 8 stress study)
T3 construct: Recombinant soluble protein made in house; also called hCLEC12A-His; hCLEC12A; not shown: His tag
T3 sequence: T1 sequence

mFc-hNKG2D [4] = molecular target: T4, mFc-hNKG2D (human, UniProt P26718 73-216); test: SPR; control sample (pH 8 stress study)
T4 construct: extracellular domain; Recombinant mFc-tagged NKG2D dimer, made in house; also called human NKG2D; not shown: mouse Fc tag
T4 sequence (looked up): T2 sequence (looked up)

Human CD16a V158 = molecular target: T5, Human CD16a V158 (human, UniProt P08637 17-208, biotinylated); test: SPR; control sample (pH 8 stress study)
T5 construct: Bought recombinant receptor; also called hCD16a (V158); hFcγRIIIa V158

De-glycosylated CLEC12A = molecular target: T6, De-glycosylated CLEC12A (human, UniProt Q5QGZ9 65-265, treated with PNGase F (N-linked glycans removed)); test: SPR, de-glycosylated CLEC12A; average of 3 replicates
T6 construct: Recombinant human CLEC12A after PNGase F; also called de-glycosylated hCLEC12A
T6 sequence: T1 sequence

[5] = molecular target: T7, mFc-hNKG2D (recombinant mFc-tagged human NKG2D dimer) (human, UniProt P26718 73-216); test: SPR; control sample
T7 construct: extracellular domain; Made in house; not shown: mouse Fc tag
T7 sequence (looked up): T2 sequence (looked up)

[6] = molecular target: T8, Human CD16a V158 (FcγRIIIa V158) (human, UniProt P08637 17-208, biotinylated); test: SPR; control sample
T8 construct: Bought recombinant receptor; also called hCD16aV; hFcγRIIIa V158

[7] = molecular target: T7, mFc-hNKG2D (recombinant mFc-tagged …); test: SPR 37C, steady state fit, average
[8] = molecular target: T9, Human CLEC12A-His (recombinant, K244 WT) (human, UniProt Q5QGZ9 65-265); test: SPR, two-state fit (ka1); control sample
T9 construct: Made in house (Dragonfly Tx); also called hCLEC12A; hCLEC12A-His; not shown: His tag
T9 sequence: T1 sequence

[9] = molecular target: T9, Human CLEC12A-His (recombinant, K244 WT); test: SPR, two-state fit (ka1); control sample; remark: listed apart in the source
[10] = molecular target: T7, mFc-hNKG2D (recombinant mFc-tagged …); test: SPR 37C, mFc-hNKG2D captured, steady state fit
[11] = molecular target: T10, Human CD32a H131 (FcγRIIa H131) (human, UniProt P12318 36-218, limits assumed, biotinylated); test: SPR 25C, biotinylated receptor captured on SA chip
T10 construct: Bought recombinant receptor; also called hFcγRIIa H131; FcgRIIa H131
T10 sequence (looked up): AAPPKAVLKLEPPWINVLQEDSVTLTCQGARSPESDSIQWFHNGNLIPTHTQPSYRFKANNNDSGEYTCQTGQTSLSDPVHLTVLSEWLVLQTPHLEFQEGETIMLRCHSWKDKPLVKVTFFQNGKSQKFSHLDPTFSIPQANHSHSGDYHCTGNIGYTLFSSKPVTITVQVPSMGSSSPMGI

[12] = molecular target: T11, Human CD32a R131 (FcγRIIa R131) (human, UniProt P12318 36-218, limits assumed, biotinylated); test: SPR 25C, biotinylated receptor captured on SA chip
T11 construct: Bought recombinant receptor; also called hFcγRIIa R131; FcgRIIa R131
T11 sequence (looked up): T10 sequence (looked up) with H132R

[13] = molecular target: T9, Human CLEC12A-His (recombinant, K244 WT); test: SPR, two-state fit (ka1); after 4 wks 40C in HST pH 6.0
recombinant human FcRn = molecular target: T12, recombinant human FcRn (human, UniProt P55899 24-297; P61769 21-119); test: SPR 25C, pH 6.0, steady state; pH 6.0; second replicate
T12 construct: also called hFcRn

T5 sequence (P08637 17-208 F176V limits assumed): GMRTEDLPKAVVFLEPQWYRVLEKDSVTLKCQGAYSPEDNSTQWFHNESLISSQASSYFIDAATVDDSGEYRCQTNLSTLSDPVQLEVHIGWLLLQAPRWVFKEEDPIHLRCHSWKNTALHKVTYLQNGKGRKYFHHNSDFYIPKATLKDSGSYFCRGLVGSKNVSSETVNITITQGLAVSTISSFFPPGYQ
T8 sequence (P08637 17-208 F176V limits assumed): as above

Kd (Human CLEC12A-His [3]): 1.68 nM
koff (Human CLEC12A-His [3]): 0.00129 s⁻¹
kon (Human CLEC12A-His [3]): 771000 M⁻¹ s⁻¹
Kd (mFc-hNKG2D [4]): 588 nM
koff (mFc-hNKG2D [4]): 0.122 s⁻¹
kon (mFc-hNKG2D [4]): 208000 M⁻¹ s⁻¹
Kd (Human CD16a V158): 171 nM
koff (Human CD16a V158): 0.0199 s⁻¹
kon (Human CD16a V158): 117000 M⁻¹ s⁻¹
Kd (De-glycosylated CLEC12A): 0.27 nM
koff (De-glycosylated CLEC12A): 0.000348 s⁻¹
kon (De-glycosylated CLEC12A): 1.31e+06 M⁻¹ s⁻¹
B2: AB0192 TriNKET (other)
chain: EVQLVESGGGVVQPGGSLRLSCAASGFTFNAFGMHWVRQAPGKCLEWVAFISSGSTSIYYANTVKGRFTISRDNSKNTLYLQMNSLRAEDTAVYYCARDGYPTGGAMDYWGQGTSVTVSSGGGGSGGGGSGGGGSGGGGSDIQMTQSPSSLSASVGDRVTITCKASQDIYNYLSWFQQKPGKAPKPLIYRANILVSGVPSRFSGSGSGQDYTFTISSLQPEDIATYYCLQFDAFPFTFGCGTKLEIKGSDKTHTCPPCPAPELLGGPSVFLFPPKPKDTLMISRTPEVTCVVVDVSHEDPEVKFNWYVDGVEVHNAKTKPREEQYNSTYRVVSVLTVLHQDWLNGKEYKCKVSNKALPAPIEKTISKAKGQPREPRVYTLPPCRDELTKNQVSLTCLVKGFYPSDIAVEWESNGQPENNYKTTPPVLVSDGSFTLYSKLTVDKSRWQQGNVFSCSVMHEALHNHYTQKSLSLSPG
heavy: EVQLVESGGGLVKPGGSLRLSCAASGFTFSSYSMNWVRQAPGKGLEWVSSISSSSSYIYYADSVKGRFTISRDNAKNSLYLQMNSLRAEDTAVYYCARGAPIGAAAGWFDPWGQGTLVTVSSASTKGPSVFPLAPSSKSTSGGTAALGCLVKDYFPEPVTVSWNSGALTSGVHTFPAVLQSSGLYSLSSVVTVPSSSLGTQTYICNVNHKPSNTKVDKKVEPKSCDKTHTCPPCPAPELLGGPSVFLFPPKPKDTLMISRTPEVTCVVVDVSHEDPEVKFNWYVDGVEVHNAKTKPREEQYNSTYRVVSVLTVLHQDWLNGKEYKCKVSNKALPAPIEKTISKAKGQPREPQVCTLPPSRDELTENQVSLTCLVKGFYPSDIAVEWESNGQPENNYKTTPPVLDSDGSFFLYSWLTVDKSRWQQGNVFSCSVMHEALHNHYTQKSLSLSPG
light: DIQMTQSPSSVSASVGDRVTITCRASQGISSWLAWYQQKPGKAPKLLIYAASSLQSGVPSRFSGSGSGTDFTLTISSLQPEDFATYYCQQGVSFPRTFGGGTKVEIKRTVAAPSVFIFPPSDEQLKSGTASVVCLLNNFYPREAKVQWKVDNALQSGNSQESVTEQDSKDSTYSLSSTLTLSKADYEKHKVYACEVTHQGLSSPVTKSFNRGEC
notes: the condition stands under assay; also called AB0192 Lot AB0192-005

Kd (recombinant human FcRn): 1100 nM
B4: F3'-1602 TriNKET (other)
chain: QLQLQESGPGLVKPSETLSLTCTVSGFSLTNYGLHWIRQPPGKCLEWIGVIWSGGKTDYNPSLKSRVTISKDTSKNQFSLKLSSVQAADTAVYYCAKYDYDDSLDYWGQGTLVTVSSGGGGSGGGGSGGGGSGGGGSDIQMTQSPSSLSASVGDRVTITCHASQNINFWLSWYQQKPGKAPKLLIYEASNLHTGVPSRFSGSGSGTRFTLTISSLQPEDIATYYCQQSHSYPLTFGCGTKLEIKGSDKTHTCPPCPAPELLGGPSVFLFPPKPKDTLMISRTPEVTCVVVDVSHEDPEVKFNWYVDGVEVHNAKTKPREEQYNSTYRVVSVLTVLHQDWLNGKEYKCKVSNKALPAPIEKTISKAKGQPREPRVYTLPPCRDELTKNQVSLTCLVKGFYPSDIAVEWESNGQPENNYKTTPPVLVSDGSFTLYSKLTVDKSRWQQGNVFSCSVMHEALHNHYTQKSLSLSPG
heavy: B2 heavy
light: B2 light
notes: CLEC12A scFv-Fc, NKG2D A49MI Fab-Fc, human IgG1 Fc; also called AB0237

Further lines, the binder ahead of its results:

B1: F3'-1602 TriNKET (bispecific antibody, human IgG1, kappa)
chain: B4 chain
heavy: B2 heavy
light: B2 light
notes: Trispecific F3' format: CLEC12A scFv-Fc paired with NKG2D Fab-Fc; Stressed and control samples of the stability studies are the same molecule; also called AB0237
Kd (Human CLEC12A-His [1]): 1.1 nM
koff (Human CLEC12A-His [1]): 0.00084 s⁻¹
kon (Human CLEC12A-His [1]): 801000 M⁻¹ s⁻¹
Kd (mFc-hNKG2D [2]): 684 nM

B3: AB0089 TriNKET (bispecific antibody, human IgG1, kappa)
chain: B4 chain with S53V, K56A, K71V, Y98G, D101G, S103T, R207D, I220F
heavy: B2 heavy
light: B2 light
notes: F3' format heterodimer of three chains; human IgG1 Fc with EW-RVT and Y349C/S354C mutations; also called AB0089 Lot AB0089-002; CLEC12A TriNKET AB0089
Kd [5]: 772 nM
koff [5]: 0.135 s⁻¹
kon [5]: 175000 M⁻¹ s⁻¹
Kd [6]: 323 nM
koff [6]: 0.0276 s⁻¹
kon [6]: 85300 M⁻¹ s⁻¹
Kd [7]: 884 nM
kon [8]: 1.01e+07 M⁻¹ s⁻¹
kon [9]: 1.01e+07 M⁻¹ s⁻¹
Kd [10]: 873 nM and 894 nM and 885 nM
Kd [11]: 954 nM and 823 nM and 930 nM and 895 nM
Kd [12]: 1340 nM and 1020 nM and 1600 nM and 1060 nM
kon [13]: 7.91e+06 M⁻¹ s⁻¹
